As a reminder, the Kd is the constant that tells how readily two partners part at equilibrium.

Experiment [1] addresses T1, IL-2Rαβγ on KHYG-1 cells (human NK leukemia cell line that expresses IL-2Rα, β, and γ) (human, UniProt P01589 22-272; P14784 27-551; P31785 23-369).
T1 sequence (looked up) 1: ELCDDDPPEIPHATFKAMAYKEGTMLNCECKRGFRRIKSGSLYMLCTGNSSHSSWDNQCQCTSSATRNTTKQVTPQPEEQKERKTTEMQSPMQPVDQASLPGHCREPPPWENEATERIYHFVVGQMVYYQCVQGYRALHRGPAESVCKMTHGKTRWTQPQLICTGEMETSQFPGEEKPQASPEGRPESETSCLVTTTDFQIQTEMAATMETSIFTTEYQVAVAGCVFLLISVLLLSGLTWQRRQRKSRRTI
T1 sequence (looked up) 2: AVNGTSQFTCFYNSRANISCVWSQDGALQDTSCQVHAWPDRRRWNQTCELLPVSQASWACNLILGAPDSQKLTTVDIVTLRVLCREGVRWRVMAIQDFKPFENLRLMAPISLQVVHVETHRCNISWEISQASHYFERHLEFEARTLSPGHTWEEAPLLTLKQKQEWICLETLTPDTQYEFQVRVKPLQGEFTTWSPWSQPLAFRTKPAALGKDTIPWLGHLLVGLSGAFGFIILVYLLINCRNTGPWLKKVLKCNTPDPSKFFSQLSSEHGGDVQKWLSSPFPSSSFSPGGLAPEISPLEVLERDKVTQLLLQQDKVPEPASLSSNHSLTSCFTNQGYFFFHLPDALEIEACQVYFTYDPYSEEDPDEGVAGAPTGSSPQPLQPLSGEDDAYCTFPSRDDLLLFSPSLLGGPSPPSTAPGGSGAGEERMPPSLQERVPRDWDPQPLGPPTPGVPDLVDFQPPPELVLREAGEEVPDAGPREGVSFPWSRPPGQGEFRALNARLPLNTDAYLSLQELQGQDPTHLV
T1 sequence (looked up) 3: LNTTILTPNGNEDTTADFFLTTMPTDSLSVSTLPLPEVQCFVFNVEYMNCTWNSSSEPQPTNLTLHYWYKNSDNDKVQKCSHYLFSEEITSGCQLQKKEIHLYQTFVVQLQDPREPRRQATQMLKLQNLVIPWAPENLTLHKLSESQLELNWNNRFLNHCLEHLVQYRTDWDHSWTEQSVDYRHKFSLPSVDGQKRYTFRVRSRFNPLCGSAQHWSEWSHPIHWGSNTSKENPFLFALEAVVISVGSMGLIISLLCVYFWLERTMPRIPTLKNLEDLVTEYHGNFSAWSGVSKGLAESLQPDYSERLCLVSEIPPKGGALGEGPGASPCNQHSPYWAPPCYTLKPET
Put plainly: cell-based or functional assay.

Experiment [2] concerns the target T2, trimeric murine IL-2 receptor (IL-2Rα, IL-2Rβ, and IL-2Rγ) on CTLL-2 cells (murine, UniProt P01590 22-268; P16297 27-539; P34902 23-369).
T2 sequence (looked up) 1: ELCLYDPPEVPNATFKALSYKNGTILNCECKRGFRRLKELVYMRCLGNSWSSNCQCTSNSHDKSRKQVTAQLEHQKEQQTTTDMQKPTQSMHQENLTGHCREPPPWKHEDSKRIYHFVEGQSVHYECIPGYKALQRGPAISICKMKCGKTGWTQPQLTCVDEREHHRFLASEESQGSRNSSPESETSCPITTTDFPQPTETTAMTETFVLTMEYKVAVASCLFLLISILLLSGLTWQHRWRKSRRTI
T2 sequence (looked up) 2: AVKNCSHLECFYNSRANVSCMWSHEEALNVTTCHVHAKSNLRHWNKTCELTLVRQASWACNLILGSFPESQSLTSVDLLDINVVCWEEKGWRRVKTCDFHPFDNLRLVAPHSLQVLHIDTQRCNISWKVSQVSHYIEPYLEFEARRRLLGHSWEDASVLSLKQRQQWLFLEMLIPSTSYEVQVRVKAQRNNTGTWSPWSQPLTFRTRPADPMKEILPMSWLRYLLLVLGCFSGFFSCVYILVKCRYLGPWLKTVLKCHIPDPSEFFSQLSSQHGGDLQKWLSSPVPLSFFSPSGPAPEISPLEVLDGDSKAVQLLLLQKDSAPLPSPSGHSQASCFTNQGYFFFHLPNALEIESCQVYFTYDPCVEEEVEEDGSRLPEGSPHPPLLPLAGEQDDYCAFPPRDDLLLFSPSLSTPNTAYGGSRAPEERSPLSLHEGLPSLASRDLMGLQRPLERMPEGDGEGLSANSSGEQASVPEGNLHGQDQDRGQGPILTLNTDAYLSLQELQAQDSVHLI
T2 sequence (looked up) 3: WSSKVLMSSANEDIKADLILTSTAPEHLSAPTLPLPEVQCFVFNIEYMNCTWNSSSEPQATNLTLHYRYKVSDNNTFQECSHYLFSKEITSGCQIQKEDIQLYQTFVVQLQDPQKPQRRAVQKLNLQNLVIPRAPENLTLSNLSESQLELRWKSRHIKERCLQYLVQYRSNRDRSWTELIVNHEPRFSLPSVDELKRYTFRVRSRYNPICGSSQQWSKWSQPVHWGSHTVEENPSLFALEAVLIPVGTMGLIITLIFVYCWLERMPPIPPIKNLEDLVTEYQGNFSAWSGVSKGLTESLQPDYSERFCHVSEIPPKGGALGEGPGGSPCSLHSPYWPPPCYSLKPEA
Put plainly: cell-based or functional assay.

In experiment [3] the target is T3, IL-2Rα (recombinant IL-2 receptor α, R&D Systems Cat #: 223-2A/CF), biotinylated (human, UniProt P01589 22-213, limits assumed, biotinylated using sulfo-NHS-LC-LC-Biotin).
T3 construct: Bought reagent; also used here as the IL-2Rα partner of the in-silico analysis of PDB 2B5I (another construct); also called IL-2RA; CD25
T3 sequence (looked up): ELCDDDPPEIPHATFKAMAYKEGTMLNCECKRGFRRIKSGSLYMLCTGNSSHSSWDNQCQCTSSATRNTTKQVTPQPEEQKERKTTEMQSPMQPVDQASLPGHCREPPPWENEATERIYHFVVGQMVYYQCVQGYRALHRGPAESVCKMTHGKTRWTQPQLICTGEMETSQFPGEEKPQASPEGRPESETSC
In words: SPR (Biacore), CM4 chip, biotinylated receptor on neutravidin.

For experiment [4], the target named is T4, IL-2Rβγ heterodimer, custom biotinylated Fc fusion protein (human IL-2Rβ 27-240-Fc-FLAG / human IL-2Rγ … (human, site-specific biotinylation at the AviTag)).
T4 construct: Extracellular regions fused to IgG1 knob-in-hole Fc subunits with tags; also called IL-2 receptor βγ heterodimer; Fc-IL-2Rβγ
The experiment is described as above.

B1: Fc-IL-2 heterodimer 117.46 (hIL-2v_Δ1-5_C125S), native IL-2Rα binding interface (Fc fusion)
chain 1: ESKYGPPCPPCPAPEAAGGPSVFLFPPKPKDTLMISRTPEVTCVVVDVSQEDPEVQFNWYVDGVEVHNAKTKPREEQFNSTYRVVSVLTVLHQDWLNGKEYKCKVSNKGLPSSIEKTISKAKGQPREPQVYTLPPSQEEMTKNQVSLWCLVKGFYPSDIAVEWESNGQPENNYKTTPPVLDSDGSFFLYSRLTVDKSRWQEGNVFSCSVMHEALHNHYTQKSLSLSLGGGGGSGGGGSGGGGSGGGGSSTKKTQLQLEHLLLDLQMILNGINNYKNPKLTRMLTFKFYMPKKATELKHLQCLEEELKPLEEVLNLAQSKNFHLRPRDLISNINVIVLELKGSETTFMCEYADETATIVEFLNRWITFSQSIISTLT
chain 2: ESKYGPPCPPCPAPEAAGGPSVFLFPPKPKDTLMISRTPEVTCVVVDVSQEDPEVQFNWYVDGVEVHNAKTKPREEQFNSTYRVVSVLTVLHQDWLNGKEYKCKVSNKGLPSSIEKTISKAKGQPREPQVYTLPPSQEEMTKNQVSLSCAVKGFYPSDIAVEWESNGQPENNYKTTPPVLDSDGSFFLVSRLTVDKSRWQEGNVFSCSVMHEALHNRFTQKSLSLSLGK
notes: hIgG4 knob-in-hole Fc heterodimer
Take B1: in experiment [1], the “Proliferation of KHYG-1 NK cells, EC50” value worked out at 0.016 nM. The “STAT5 activation of CTLL-2 cells, EC50” value in experiment [2] amounted to 0.003 nM. Besides, the Kd came out at 60 nM in experiment [3] and 0.056 nM in experiment [4].

For the origin of these results see patent US20240269235A1 (Gilead, published 2024).
